# What was measured:
# [1] = target: T1, VhChiP (OM-expressed, native) (Vibrio harveyi, UniProt L0RVU0); assay: single-channel electrophysiology, planar lipid bilayer, ion current block titration; format: binding; conditions: 1 M KCl, 20 mM HEPES pH 7.5, 25 °C, -100 mV, sugar on cis side; range printed jointly for both full-length channels
# T1 construct: gene chiP; full-length mature protein after signal peptide processing, no His-tag, pET23d(+), expressed in outer membrane of E. coli BL21(DE3) omp8 rosetta, homotrimer
# T1 sequence (L0RVU0 26-375): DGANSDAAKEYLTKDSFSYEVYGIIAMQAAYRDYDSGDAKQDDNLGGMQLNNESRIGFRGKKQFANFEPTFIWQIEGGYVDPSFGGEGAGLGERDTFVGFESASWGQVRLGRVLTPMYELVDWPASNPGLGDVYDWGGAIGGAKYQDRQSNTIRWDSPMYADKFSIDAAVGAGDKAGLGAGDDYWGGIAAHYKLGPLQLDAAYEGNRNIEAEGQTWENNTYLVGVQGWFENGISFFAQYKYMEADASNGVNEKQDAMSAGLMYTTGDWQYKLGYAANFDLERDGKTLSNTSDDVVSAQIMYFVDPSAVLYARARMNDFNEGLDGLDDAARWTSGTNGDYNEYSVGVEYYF
# [2] = target: T1, VhChiP (OM-expressed, native); assay: X-ray crystal structure of co-crystals; format: binding; conditions: 10 mM GlcNAc4, 0.1 M MES pH 6.5, 28% PEG 400
# [3] = target: OM-expressed VhChiP (chitoporin from Vibrio harveyi) (Vibrio harveyi); assay: SDS-PAGE of non-boiled and boiled samples; purified protein loaded non-boiled and boiled; heat-modifiable mobility
# [4] = target: OM-expressed VhChiP (chitoporin from Vibrio harveyi) (Vibrio harveyi); assay: crystal structure; OM-expressed VhChiP, 10 mg/mL, 0.4% C8E4; space group C2: 28% PEG 400, 0.2 M sodium acetate, 0.1 M MES pH 6.5
# [5] = target: in vitro-folded VhChiP (Vibrio harveyi); assay: SDS-PAGE of non-boiled and boiled samples; purified protein loaded non-boiled and boiled; heat-modifiable mobility
# [6] = target: in vitro-folded VhChiP (Vibrio harveyi); assay: crystal structure; in vitro-folded SeMet VhChiP, ~12 mg/mL, 0.4% C8E4; crystal form I P2_(1): 30% PEG 400, 0.05 M NaCl, 0.1 M sodium citrate pH 5.5; crystal form II: 28% PEG 400, 0.5 M potassium iodide, 0.1 M Tris pH 8.5
molecule,measurement,setting,value
CC(=O)N[C@H]1[C@H](O[C@H]2[C@H](O)[C@@H](NC(C)=O)[C@H](O[C@H]3[C@H](O)[C@@H](NC(C)=O)C(O)O[C@@H]3CO)O[C@@H]2CO)O[C@H](CO)[C@@H](O[C@@H]2O[C@H](CO)[C@@H](O[C@@H]3O[C@H](CO)[C@@H](O[C@@H]4O[C@H](CO)[C@@H](O)[C@H](O)[C@H]4NC(C)=O)[C@H](O)[C@H]3NC(C)=O)[C@H](O)[C@H]2NC(C)=O)[C@@H]1O (stereo partly drawn) [chitohexaose],K,[1],2–5 × 10^5
CC(=O)N[C@H]1[C@H](O[C@H]2[C@H](O)[C@@H](NC(C)=O)C(O)O[C@@H]2CO)O[C@H](CO)[C@@H](O[C@@H]2O[C@H](CO)[C@@H](O[C@@H]3O[C@H](CO)[C@@H](O)[C@H](O)[C@H]3NC(C)=O)[C@H](O)[C@H]2NC(C)=O)[C@@H]1O (stereo partly drawn) [chitotetraose],X-ray crystal structure of co-crystals,[2],we co-crystallized OM-expressed VhChiP with chitotetraose (GlcNAc4)
OM-expressed VhChiP (chitoporin from Vibrio harveyi) (natural protein),stoichiometry N,[3],3
same,stoichiometry N,[4],3
in vitro-folded VhChiP (natural protein),stoichiometry N,[5],3
same,stoichiometry N,[6],3

# Source: PMC5768706, “Structural basis for chitin acquisition by marine Vibrio species” (Nature Communications, 2018)
